This note sets out measurements from patent US4740588A, “Novel substrate peptides” (Washington University, priority 1986, dated 1988).

Residues, ends and D or L forms follow the SMILES beside them.

The target of series [1] is T1, N-myristoylglycylpeptide synthetase (N-myristoyl transferase) (Saccharomyces cerevisiae, UniProt P14743).
T1 construct: using crude membrane fractions from yeast with changes as indicated; endogenous in cells; host or cells: S. cerevisiae strain JR153 (protease-deficient), crude membrane pellet of the cell lysate
T1 sequence (P14743 1-455): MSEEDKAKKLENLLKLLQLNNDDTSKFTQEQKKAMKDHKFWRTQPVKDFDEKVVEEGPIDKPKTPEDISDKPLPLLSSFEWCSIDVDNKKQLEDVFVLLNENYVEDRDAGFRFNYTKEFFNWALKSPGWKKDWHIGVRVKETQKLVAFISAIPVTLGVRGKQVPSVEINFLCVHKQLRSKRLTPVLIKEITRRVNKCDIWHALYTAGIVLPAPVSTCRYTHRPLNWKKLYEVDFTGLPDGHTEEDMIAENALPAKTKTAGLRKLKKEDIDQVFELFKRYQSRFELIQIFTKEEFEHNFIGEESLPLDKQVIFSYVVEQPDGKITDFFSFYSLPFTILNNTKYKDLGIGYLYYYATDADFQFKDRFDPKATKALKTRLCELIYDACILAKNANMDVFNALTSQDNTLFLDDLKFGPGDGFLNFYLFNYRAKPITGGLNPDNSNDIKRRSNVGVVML
In words: Assay for N-myristoylglycylpeptide synthetase activity, crude membrane fractions from yeast. The series is classed as biochemical. The following applies: for activity as substrate for myristoylglycylpeptide synthetase: result in words. How it is done: The synthetic octapeptide […]was used to identify a unique enzymatic activity which transfers myristic acid to the amino terminal glycine of this and other peptides. […] The enzyme activity was determined in an in vitro assay which measures the transfer of [^3 H]-myristic acid to the acceptor peptide. The transfer reaction is dependent on adenosine triphosphate (ATP) and coenzyme A (CoA). The enzymatic product was then identified by high performance liquid chromatography (HPLC) by co-elution with a chemically synthesized myristoyl peptide standard. […] Both contained M-myristoyl glycine.
Preparation of yeast extract for the assay of N-myristoylglycylpeptide synthetase activity. Yeast cultures were grown as described above to O.D. 660 nm of 1 to 3. Cells from 40 ml of culture were collected by centrifugation at 4° C. at 7600×g for 10 minutes. The supernatant was decanted, the cell pellet was resuspended by pipetting into 1 ml of cold 10 mM Tris, pH 7.4, transferred to a 1.5 ml conical polypropylene centrifuge tube, and the cells were then repelleted at 4° C. at 7600×g for 10 minutes. Cells were resuspended in 400 μl of cold assay lysis buffer (10 mM Tris, pH 7.4, 1 mM dithiothreitol,0.1 mM ethylene glycol-bis(β-aminoethyl ether) N,N,N',N'-tetraacetic acid (EGTA), 10 μg/ml Aprotinin) by pipetting. Approximately 400 μl of 0.5 mm glass beads were added to the resuspended cells, and the cells were lysed by vortexing as described above for lysis of radioactively labeled cells. After allowing the beads to settle, the lysate was collected and cellular debris was removed by centrifugation at 4° C. at 1000×g for 10 minutes. The supernatant was then centrifuged at 4° C. at 45,000 rpm for 30 minutes in a Beckman 75 Ti rotor. The supernatant was removed, and the crude membrane pellet was resuspended by pipetting into 400 μl of cold assay lysis buffer. Aliquots of the three cellular fractions were either assayed immediately or stored at -60° C. The activity associated with crude membranes was stable at -60° C. for at least 3 months. Protein was determined by the method of Peterson, Anal. Biochem. 83, 346-356 (1977).
Assay for N-myristoylglycylpeptide synthetase activity. [^3 H]Fatty acyl CoA was synthesized enzymatically and added to the incubation as follows. […] Typically, 40% to 50% of the [^3 H]fatty acid was converted to its CoA ester by this procedure as measured by determining the radioactivity remaining in the reaction after acidification with 6 N HCl to pH 2.0 and extraction 6 times with 5 volumes of heptane, a modification of the method of Hosaka et al., Meth. […]

Substrate in series [2]: C[C@H](NC(=O)[C@H](C)NC(=O)[C@H](CCC(=O)O)NC(=O)[C@H](CC(N)=O)NC(=O)CN)C(=O)N[C@@H](C)C(=O)N[C@@H](CCCNC(=N)N)C(=O)N[C@@H](CCCNC(=N)N)C(N)=O
In words: Peptide substrate specificity (Km, Vmax) of partially purified yeast myristoylating enzyme. The series is classed as biochemical, S. cerevisiae strain JR153. The following applies: other: peptide as acyl acceptor, 1 μCi [3H]-myristic acid per tube, 30.0 °C.

Substrate in series [3]: C[C@H](NC(=O)[C@H](C)NC(=O)[C@H](C)NC(=O)[C@H](CCC(N)=O)NC(=O)CN)C(=O)N[C@@H](C)C(=O)N[C@@H](CCCNC(=N)N)C(=O)N[C@@H](CCCNC(=N)N)C(N)=O
Described as above. The series is classed as biochemical, S. cerevisiae strain JR153. The following applies: other: peptide as acyl acceptor, 1 μCi [3H]-myristic acid per tube, 30.0 °C.

Substrate in series [4]: C[C@H](NC(=O)[C@H](C)NC(=O)[C@H](C)NC(=O)[C@H](CO)NC(=O)CN)C(=O)N[C@@H](C)C(=O)N[C@@H](CCCNC(=N)N)C(=O)N[C@@H](CCCNC(=N)N)C(N)=O
The description is as above. As to conditions: other: peptide as acyl acceptor, 1 μCi [3H]-myristic acid per tube, 30.0 °C. The series is classed as biochemical, S. cerevisiae strain JR153.

Substrate in series [5]: C[C@H](NC(=O)CN)C(=O)N[C@@H](CCC(N)=O)C(=O)N[C@@H](C)C(=O)N[C@@H](C)C(=O)N[C@@H](C)C(=O)N[C@@H](CCCNC(=N)N)C(=O)N[C@@H](CCCNC(=N)N)C(N)=O
The series is described as above. As to conditions: other: peptide as acyl acceptor, 1 μCi [3H]-myristic acid per tube, 30.0 °C. The series is classed as biochemical, S. cerevisiae strain JR153.

Substrate in series [6]: C[C@H](NC(=O)[C@H](C)NC(=O)[C@H](CCCNC(=N)N)NC(=O)[C@H](CC(N)=O)NC(=O)CN)C(=O)N[C@@H](C)C(=O)N[C@@H](CCCNC(=N)N)C(=O)N[C@@H](CCCNC(=N)N)C(N)=O
The description is as above. In kind it is biochemical, S. cerevisiae strain JR153. The following applies: other: peptide as acyl acceptor, 1 μCi [3H]-myristic acid per tube, 30.0 °C.

Substrate in series [7]: C[C@H](NC(=O)[C@H](C)NC(=O)[C@H](CC(N)=O)NC(=O)CN)C(=O)N[C@@H](CO)C(N)=O
The description is as above. As to conditions: other: peptide as acyl acceptor, 1 μCi [3H]-myristic acid per tube, 30.0 °C. In kind it is biochemical, S. cerevisiae strain JR153.

Substrate in series [8]: C[C@H](NC(=O)[C@H](C)NC(=O)[C@H](C)NC(=O)[C@H](C)NC(=O)[C@H](CC(N)=O)NC(=O)CN)C(N)=O
Described as above. As to conditions: other: peptide as acyl acceptor, 1 μCi [3H]-myristic acid per tube, 30.0 °C. In kind it is biochemical, S. cerevisiae strain JR153.

Substrate in series [9]: C[C@H](NC(=O)[C@H](C)NC(=O)[C@H](Cc1ccccc1)NC(=O)[C@H](CC(N)=O)NC(=O)CN)C(=O)N[C@@H](C)C(=O)N[C@@H](CCCNC(=N)N)C(=O)N[C@@H](CCCNC(=N)N)C(N)=O
The series is described as above. The series is classed as biochemical, S. cerevisiae strain JR153. As to conditions: other: peptide as acyl acceptor, 1 μCi [3H]-myristic acid per tube, 30.0 °C.

Substrate in series [10]: CC(C)C[C@H](NC(=O)[C@@H]1CCCN1C(=O)[C@H](Cc1ccc(O)cc1)NC(=O)[C@H](CO)NC(=O)[C@H](C)NC(=O)[C@H](CCC(=O)O)NC(=O)[C@H](CC(N)=O)NC(=O)CN)C(N)=O
Described as above. In kind it is biochemical, S. cerevisiae strain JR153. As to conditions: other: peptide as acyl acceptor, 1 μCi [3H]-myristic acid per tube, 30.0 °C.

As to `N=C(N)NCCC[C@H](NC(=O)[C@@H]1CCCN1C(=O)CN)C(=O)N1CCC[C@H]1C(N)=O` [GPRP, Gly-Pro-Arg-Pro] (H-GPRP-NH2), the “activity as substrate for myristoylglycylpeptide synthetase” value (shortened to “activity as substrate”) in series [1] was “inactive”.
For the molecule `NCC(=O)N[C@@H](CC(N)=O)C(N)=O` [GN, Gly-Asn] (H-Gly-Asn-NH2), the “activity as substrate” value in [1] was “inactive”.
With GSSKSPKDPS, the “Rate of Myristoylpeptide Synthesis” value in series [1] (Test 3: 1 mM test peptide added as competitor, 18 μM GlyAsnAlaAlaAlaAlaArgArg substrate, control 26.7) came to 27.4 DPM × 10^3 /10 min. Also, in [1], the “activity as substrate” value is “inactive”.

B1: Yeast Myristoylating Enzyme (Saccharomyces cerevisiae S288C) (protein)
chain: T1 sequence (P14743 1-455)
notes: partially purified from a crude homogenate of the cultured yeast cells; endogenous in cells; host or cells: S. cerevisiae strain JR153
By Km is commonly meant the concentration of substrate that gives half-maximal velocity. For the molecule B1, the Km in series [2] worked out at 1800 µM; in series [3], 70 µM; in series [4], 1700 µM; in series [5], 1400 µM; in series [6] it was 400 µM; in [7] it was 900 µM. Also, the Km in [8] came out at 1300 µM; in [9], 60 µM; in series [10] it was 2300 µM.
